# Measured values: publication PMC9482650, “Quantitative fragmentomics allow affinity mapping of interactomes” (Nature Communications, 2022)
# B1: LRRC4B, Q9NT99 (peptide)
# chain: SKENVQETQI
# B2: KCNJ1, P48048 (peptide)
# chain: EVNETDDTKM
# B3: KCNA1, Q09470 (peptide)
# chain: VNKSKLLTDV
# B4: BAZ1A, Q9NRL2 (peptide)
# chain: TPPAAKKSRI
# Target: MAGI2_5, Q86UL8
# Test: holdup assay
# Set-up: key: below the threshold = too weak to quantify, mostly under pKd 3.1 to 4
# Conditions: plain residues with an end cap or a label only (N-terminal biotin on a linker: ado-ado)
# Chain of MAGI2_5, Q86UL8 (Q86UL8 915-1017): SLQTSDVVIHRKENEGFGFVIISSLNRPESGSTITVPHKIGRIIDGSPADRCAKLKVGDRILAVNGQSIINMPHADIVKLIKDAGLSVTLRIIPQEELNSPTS
row,Binder,pKd
1,B1,4.13
2,B2,4.04
3,B3,below the threshold
4,B4,below the threshold

# Target: T1, APBA2_2, Q99767
# T1 sequence (Q99767 654-744, limits assumed, looked up): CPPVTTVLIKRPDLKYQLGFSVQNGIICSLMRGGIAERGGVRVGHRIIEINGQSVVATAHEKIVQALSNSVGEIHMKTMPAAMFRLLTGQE
# Test: holdup assay
# Set-up: key: below the threshold = too weak to quantify, mostly under pKd 3.1 to 4
# Conditions: plain residues with an end cap or a label only (N-terminal biotin on a linker: ado-ado)
row,Binder,pKd
1,B1,below the threshold
2,B2,below the threshold
3,B3,below the threshold
4,B4,below the threshold

# Target: DLG1_2, Q12959
# Sequence (Q12959 314-412): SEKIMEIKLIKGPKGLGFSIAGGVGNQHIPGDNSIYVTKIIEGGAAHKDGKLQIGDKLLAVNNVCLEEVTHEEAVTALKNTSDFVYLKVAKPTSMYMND
# Test: holdup assay
# Set-up: key: below the threshold = too weak to quantify, mostly under pKd 3.1 to 4
# Conditions: plain residues with an end cap or a label only (N-terminal biotin on a linker: ado-ado)
row,Binder,pKd
1,B1,4.64
2,B2,below the threshold
3,B3,4.55
4,B4,below the threshold

# Target: NOS1, P29475
# Sequence (P29475 9-101): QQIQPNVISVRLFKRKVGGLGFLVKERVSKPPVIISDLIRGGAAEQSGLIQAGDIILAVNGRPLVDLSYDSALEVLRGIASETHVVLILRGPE
# Test: holdup assay
# Set-up: key: below the threshold = too weak to quantify, mostly under pKd 3.1 to 4
# Conditions: plain residues with an end cap or a label only (N-terminal biotin on a linker: ado-ado)
row,Binder,pKd
1,B1,3.85
2,B2,below the threshold
3,B3,below the threshold
4,B4,3.51

# Target: PTPN3, P26045
# Sequence (P26045 505-587): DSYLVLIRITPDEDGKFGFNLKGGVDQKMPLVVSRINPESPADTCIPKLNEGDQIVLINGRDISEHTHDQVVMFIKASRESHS
# Test: holdup assay
# Set-up: key: below the threshold = too weak to quantify, mostly under pKd 3.1 to 4
# Conditions: plain residues with an end cap or a label only (N-terminal biotin on a linker: ado-ado)
row,Binder,pKd
1,B1,4.8
2,B2,4.35
3,B3,3.65
4,B4,3.93

# Target: T2, DFNB31_2, Q9P202
# T2 sequence (Q9P202 274-371, limits assumed, looked up): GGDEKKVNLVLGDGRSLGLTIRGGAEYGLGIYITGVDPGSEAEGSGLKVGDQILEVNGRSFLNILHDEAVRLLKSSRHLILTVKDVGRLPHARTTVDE
# Test: holdup assay
# Set-up: key: below the threshold = too weak to quantify, mostly under pKd 3.1 to 4
# Conditions: plain residues with an end cap or a label only (N-terminal biotin on a linker: ado-ado)
row,Binder,pKd
1,B1,below the threshold
2,B2,below the threshold
3,B3,below the threshold
4,B4,below the threshold

# Target: IL16_3, Q14005
# Sequence (Q14005 1107-1207): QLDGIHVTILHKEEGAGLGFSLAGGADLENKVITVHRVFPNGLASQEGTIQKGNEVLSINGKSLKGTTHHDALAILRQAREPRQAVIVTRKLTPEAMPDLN
# Test: holdup assay
# Set-up: key: below the threshold = too weak to quantify, mostly under pKd 3.1 to 4
# Conditions: plain residues with an end cap or a label only (N-terminal biotin on a linker: ado-ado)
row,Binder,pKd
1,B1,below the threshold
2,B2,below the threshold
3,B3,below the threshold
4,B4,below the threshold

# Target: DLG2_3, Q15700
# Test: holdup assay
# Set-up: key: below the threshold = too weak to quantify, mostly under pKd 3.1 to 4
# Conditions: plain residues with an end cap or a label only (N-terminal biotin on a linker: ado-ado)
row,Binder,pKd
1,B1,4.17
2,B2,below the threshold
3,B3,3.57
4,B4,below the threshold

# Target: T3, PDZRN3_1, Q9UPQ7
# T3 sequence (Q9UPQ7 244-349, limits assumed, looked up): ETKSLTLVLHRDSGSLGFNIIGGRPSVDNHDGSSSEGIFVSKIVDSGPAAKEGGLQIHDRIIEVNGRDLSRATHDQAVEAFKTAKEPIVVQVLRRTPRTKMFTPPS
# Test: holdup assay
# Set-up: key: below the threshold = too weak to quantify, mostly under pKd 3.1 to 4
# Conditions: plain residues with an end cap or a label only (N-terminal biotin on a linker: ado-ado)
row,Binder,pKd
1,B1,4.19
2,B2,below the threshold
3,B3,below the threshold
4,B4,below the threshold

# Target: TJP1_2, Q07157
# Sequence (Q07157 181-274): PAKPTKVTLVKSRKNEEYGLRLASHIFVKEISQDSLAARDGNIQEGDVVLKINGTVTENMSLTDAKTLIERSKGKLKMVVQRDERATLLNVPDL
# Test: holdup assay
# Set-up: key: below the threshold = too weak to quantify, mostly under pKd 3.1 to 4
# Conditions: plain residues with an end cap or a label only (N-terminal biotin on a linker: ado-ado)
row,Binder,pKd
1,B1,below the threshold
2,B2,below the threshold
3,B3,below the threshold
4,B4,below the threshold

# Target: PICK1, Q9NRD5
# Sequence (Q9NRD5 17-115): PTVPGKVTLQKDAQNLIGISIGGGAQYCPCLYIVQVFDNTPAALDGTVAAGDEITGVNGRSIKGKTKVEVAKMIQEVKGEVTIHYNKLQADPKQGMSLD
# Test: holdup assay
# Set-up: key: below the threshold = too weak to quantify, mostly under pKd 3.1 to 4
# Conditions: plain residues with an end cap or a label only (N-terminal biotin on a linker: ado-ado)
row,Binder,pKd
1,B1,below the threshold
2,B2,4.17
3,B3,below the threshold
4,B4,below the threshold

# Target: T4, MPDZ_12, O75970
# T4 sequence (O75970 1857-1958, limits assumed, looked up): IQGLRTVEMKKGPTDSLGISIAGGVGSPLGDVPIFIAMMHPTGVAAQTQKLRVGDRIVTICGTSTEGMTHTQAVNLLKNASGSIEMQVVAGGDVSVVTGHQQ
# Test: holdup assay
# Set-up: key: below the threshold = too weak to quantify, mostly under pKd 3.1 to 4
# Conditions: plain residues with an end cap or a label only (N-terminal biotin on a linker: ado-ado)
row,Binder,pKd
1,B1,3.48
2,B2,below the threshold
3,B3,below the threshold
4,B4,below the threshold

# Target: T5, LIN7A, O14910
# T5 sequence (O14910 103-200, limits assumed, looked up): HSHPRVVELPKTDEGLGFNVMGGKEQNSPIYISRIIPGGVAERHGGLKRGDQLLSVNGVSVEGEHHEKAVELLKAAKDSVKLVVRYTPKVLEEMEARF
# Test: holdup assay
# Set-up: key: below the threshold = too weak to quantify, mostly under pKd 3.1 to 4
# Conditions: plain residues with an end cap or a label only (N-terminal biotin on a linker: ado-ado)
row,Binder,pKd
1,B1,below the threshold
2,B2,3.52
3,B3,below the threshold
4,B4,below the threshold

# Target: HTRA1, Q92743
# Sequence (Q92743 360-477): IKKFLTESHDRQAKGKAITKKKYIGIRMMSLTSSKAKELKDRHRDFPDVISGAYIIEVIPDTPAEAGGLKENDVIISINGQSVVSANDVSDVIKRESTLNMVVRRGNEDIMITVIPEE
# Test: holdup assay
# Set-up: key: below the threshold = too weak to quantify, mostly under pKd 3.1 to 4
# Conditions: plain residues with an end cap or a label only (N-terminal biotin on a linker: ado-ado)
row,Binder,pKd
1,B1,below the threshold
2,B2,below the threshold
3,B3,below the threshold
4,B4,below the threshold

# Target: T6, DLG3_1, Q92796
# T6 sequence (Q92796 125-227, limits assumed, looked up): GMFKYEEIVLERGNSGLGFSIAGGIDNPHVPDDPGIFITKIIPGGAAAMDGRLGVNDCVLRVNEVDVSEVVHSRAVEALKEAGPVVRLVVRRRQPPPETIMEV
# Test: holdup assay
# Set-up: key: below the threshold = too weak to quantify, mostly under pKd 3.1 to 4
# Conditions: plain residues with an end cap or a label only (N-terminal biotin on a linker: ado-ado)
row,Binder,pKd
1,B1,3.73
2,B2,below the threshold
3,B3,3.66
4,B4,3.53

# Target: T7, ARHGAP21, Q5T5U3
# T7 sequence (Q5T5U3 45-169, limits assumed, looked up): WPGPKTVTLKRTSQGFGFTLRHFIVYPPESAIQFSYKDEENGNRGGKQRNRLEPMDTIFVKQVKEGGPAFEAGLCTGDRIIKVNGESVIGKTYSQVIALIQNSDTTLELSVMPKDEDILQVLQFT
# Test: holdup assay
# Set-up: key: below the threshold = too weak to quantify, mostly under pKd 3.1 to 4
# Conditions: plain residues with an end cap or a label only (N-terminal biotin on a linker: ado-ado)
row,Binder,pKd
1,B1,below the threshold
2,B2,3.96
3,B3,below the threshold
4,B4,3.58

# Target: T8, NHERF3_4, Q5T2W1
# T8 sequence (Q5T2W1 373-468, limits assumed, looked up): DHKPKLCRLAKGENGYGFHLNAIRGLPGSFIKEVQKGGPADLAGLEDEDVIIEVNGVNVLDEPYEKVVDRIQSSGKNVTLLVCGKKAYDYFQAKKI
# Test: holdup assay
# Set-up: key: below the threshold = too weak to quantify, mostly under pKd 3.1 to 4
# Conditions: plain residues with an end cap or a label only (N-terminal biotin on a linker: ado-ado)
row,Binder,pKd
1,B1,below the threshold
2,B2,3.48
3,B3,below the threshold
4,B4,below the threshold

# Target: T9, NHERF3_1, Q5T2W1
# T9 sequence (Q5T2W1 4-100, limits assumed, looked up): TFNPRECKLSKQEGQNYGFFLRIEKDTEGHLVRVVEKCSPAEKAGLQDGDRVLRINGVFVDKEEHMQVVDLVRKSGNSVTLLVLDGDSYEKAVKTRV
# Test: holdup assay
# Set-up: key: below the threshold = too weak to quantify, mostly under pKd 3.1 to 4
# Conditions: plain residues with an end cap or a label only (N-terminal biotin on a linker: ado-ado)
row,Binder,pKd
1,B1,5.07
2,B2,5.39
3,B3,below the threshold
4,B4,below the threshold

# Target: DLG2_2, Q15700
# Test: holdup assay
# Set-up: key: below the threshold = too weak to quantify, mostly under pKd 3.1 to 4
# Conditions: plain residues with an end cap or a label only (N-terminal biotin on a linker: ado-ado)
row,Binder,pKd
1,B1,4.47
2,B2,below the threshold
3,B3,4.29
4,B4,3.65

# Target: T10, TX1BP3, O14907
# T10 sequence (O14907 10-122, limits assumed, looked up): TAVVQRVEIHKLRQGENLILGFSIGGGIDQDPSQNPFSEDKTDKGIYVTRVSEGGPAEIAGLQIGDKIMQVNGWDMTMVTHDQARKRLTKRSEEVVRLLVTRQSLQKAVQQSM
# Test: holdup assay
# Set-up: key: below the threshold = too weak to quantify, mostly under pKd 3.1 to 4
# Conditions: plain residues with an end cap or a label only (N-terminal biotin on a linker: ado-ado)
row,Binder,pKd
1,B1,below the threshold
2,B2,4.15
3,B3,4.22
4,B4,below the threshold

# Target: T11, MPDZ_10, O75970
# T11 sequence (O75970 1624-1722, limits assumed, looked up): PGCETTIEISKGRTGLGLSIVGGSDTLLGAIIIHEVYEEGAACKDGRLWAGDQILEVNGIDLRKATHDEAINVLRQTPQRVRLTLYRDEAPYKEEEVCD
# Test: holdup assay
# Set-up: key: below the threshold = too weak to quantify, mostly under pKd 3.1 to 4
# Conditions: plain residues with an end cap or a label only (N-terminal biotin on a linker: ado-ado)
row,Binder,pKd
1,B1,below the threshold
2,B2,below the threshold
3,B3,below the threshold
4,B4,3.69

# Target: T12, MPDZ_5, O75970
# T12 sequence (O75970 695-796, limits assumed, looked up): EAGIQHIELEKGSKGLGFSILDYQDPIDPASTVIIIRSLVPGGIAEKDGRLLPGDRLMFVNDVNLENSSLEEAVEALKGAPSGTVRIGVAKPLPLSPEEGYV
# Test: holdup assay
# Set-up: key: below the threshold = too weak to quantify, mostly under pKd 3.1 to 4
# Conditions: plain residues with an end cap or a label only (N-terminal biotin on a linker: ado-ado)
row,Binder,pKd
1,B1,below the threshold
2,B2,below the threshold
3,B3,below the threshold
4,B4,below the threshold

# Target: MAST1, Q9Y2H9
# Sequence (Q9Y2H9 962-1065): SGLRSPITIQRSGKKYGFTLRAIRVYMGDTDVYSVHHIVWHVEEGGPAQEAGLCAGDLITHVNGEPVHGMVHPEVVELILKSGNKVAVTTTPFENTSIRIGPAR
# Test: holdup assay
# Set-up: key: below the threshold = too weak to quantify, mostly under pKd 3.1 to 4
# Conditions: plain residues with an end cap or a label only (N-terminal biotin on a linker: ado-ado)
row,Binder,pKd
1,B1,3.97
2,B2,4.46
3,B3,4.3
4,B4,3.9

# Target: T13, LRRC7, Q96NW7
# T13 sequence (Q96NW7 1440-1537, limits assumed, looked up): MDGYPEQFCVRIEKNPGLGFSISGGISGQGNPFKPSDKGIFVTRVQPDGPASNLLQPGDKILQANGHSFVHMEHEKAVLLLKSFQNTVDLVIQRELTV
# Test: holdup assay
# Set-up: key: below the threshold = too weak to quantify, mostly under pKd 3.1 to 4
# Conditions: plain residues with an end cap or a label only (N-terminal biotin on a linker: ado-ado)
row,Binder,pKd
1,B1,below the threshold
2,B2,below the threshold
3,B3,below the threshold
4,B4,below the threshold
